For data set [1], the target named is T1, ORF2p core (human (Homo sapiens), UniProt O00370 238-1061). Kind of data set: cryo-EM (3.66 A); DSF: 20 mM HEPES-KOH pH 7.6, 100 mM NaCl, 1 mM DTT, 2 mM Mg acetate, thermal ramp; crystals: protein 3 mg/mL, 50 mM NaCl dilution, 2 mM MgCl2, 2 mM dTTP, 1.3:1.
The target of data set [2] is ORF2p-His8 core (human (Homo sapiens), UniProt O00370 238-1061). Kind of data set: X-ray crystallography (2.1 A); dTTP, Mg2+; DSF: 20 mM HEPES-KOH pH 7.6, 100 mM NaCl, 1 mM DTT, 2 mM Mg acetate, thermal ramp; crystals: protein 3 mg/mL, 50 mM NaCl dilution, 2 mM MgCl2, 2 mM dTTP, 1.3:1.
The target in data set [3] is T1, ORF2p core. Kind of data set: cryo-EM (3.30 A); dTTP, Mg2+; DSF: 20 mM HEPES-KOH pH 7.6, 100 mM NaCl, 1 mM DTT, 2 mM Mg acetate, thermal ramp; crystals: protein 3 mg/mL, 50 mM NaCl dilution, 2 mM MgCl2, 2 mM dTTP, 1.3:1.

As for AAAAAAAAAAAAAAAAAAAAAAAAA (ssRNA) [oligo-25(A) ssRNA], in data set [1], the binding result is on record as “binds”.

B1: crystallography RNA template:DNA primer hybrid (DNA:RNA)
RNA: UUAGGAAAGCGC
DNA: GCGCTTTCC
modifications: 3' dideoxy-C on DNA primer
For the molecule B1, in data set [2], the binding result was “binds”.

B2: cryo-EM RNA:DNA hybrid (DNA:RNA)
RNA: GGAGCGAAAUUUUCGC
DNA: GCGAAAATTTCGC
modifications: 3' dideoxy-C on DNA primer
Regarding B2, the binding result in data set [3] was “binds”.

Source of the values: paper PMC10830420.
